In doi:10.1101/2022.10.12.511876:
Where two headings read alike, the source gives them in different places.

Tests used:
[1] = target: Mpf2Ba1 activated by WCR gut fluid (N-terminally cleaved after Lys25) (Pseudomonas monteilii); assay: cryo-EM structure
[2] = target: Mpf2Ba1 activated by WCR gut fluid (N-terminally cleaved after Lys25) (Pseudomonas monteilii); assay: cryo-EM structure; remark: listed apart in the source

For “Mpf2Ba1 activated by WCR gut fluid (N-terminally cleaved after Lys25) (domain or fragment)”, the stoichiometry N [1] was 21 and the stoichiometry N [2] was 22.
